Results as given in publication PMC3060061.

Biological target: PP2A core enzyme (A–C core dimer) (human) (UniProt P30153)
Experiment: ITC

Sequence of UniProt P30153 (P30153 whole entry, chain 1 of 2): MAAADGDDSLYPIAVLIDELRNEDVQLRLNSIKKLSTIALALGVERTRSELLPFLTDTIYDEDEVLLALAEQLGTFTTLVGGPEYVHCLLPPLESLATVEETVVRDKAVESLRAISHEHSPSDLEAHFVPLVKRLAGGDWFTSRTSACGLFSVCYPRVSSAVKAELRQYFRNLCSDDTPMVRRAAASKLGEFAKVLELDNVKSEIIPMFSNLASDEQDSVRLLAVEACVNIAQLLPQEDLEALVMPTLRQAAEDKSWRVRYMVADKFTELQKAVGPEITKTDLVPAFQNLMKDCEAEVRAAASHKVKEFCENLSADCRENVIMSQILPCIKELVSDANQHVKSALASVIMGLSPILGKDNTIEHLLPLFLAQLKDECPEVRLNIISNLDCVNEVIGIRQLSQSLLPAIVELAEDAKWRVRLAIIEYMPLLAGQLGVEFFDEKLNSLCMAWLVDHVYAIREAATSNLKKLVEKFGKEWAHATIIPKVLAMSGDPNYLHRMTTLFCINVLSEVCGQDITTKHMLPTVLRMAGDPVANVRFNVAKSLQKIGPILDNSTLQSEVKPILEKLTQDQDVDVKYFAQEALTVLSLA
Sequence of UniProt P30153 (P67775 whole entry, chain 2 of 2, further chain): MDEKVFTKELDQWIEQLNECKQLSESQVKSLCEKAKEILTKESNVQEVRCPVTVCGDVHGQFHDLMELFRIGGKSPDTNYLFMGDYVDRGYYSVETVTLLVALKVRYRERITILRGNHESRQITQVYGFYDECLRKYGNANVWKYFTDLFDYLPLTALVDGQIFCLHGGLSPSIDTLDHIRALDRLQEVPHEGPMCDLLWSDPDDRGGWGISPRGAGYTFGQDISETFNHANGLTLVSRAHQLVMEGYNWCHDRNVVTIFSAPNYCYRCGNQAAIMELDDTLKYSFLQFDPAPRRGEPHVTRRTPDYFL

LCMT-1 T29V (enzyme)
fold increase of the binding affinity against wild type LCMT-1: 4 fold
